The numbers were not newly measured in PMC10044870, which cites them from elsewhere.

This data set deals with cleaved high molecular weight kininogen (HKa) (Homo sapiens) (UniProt P01042).
Sequence of cleaved high molecular weight kininogen (HKa) (Homo sapiens) (P01042 19-380, chain 1 of 2): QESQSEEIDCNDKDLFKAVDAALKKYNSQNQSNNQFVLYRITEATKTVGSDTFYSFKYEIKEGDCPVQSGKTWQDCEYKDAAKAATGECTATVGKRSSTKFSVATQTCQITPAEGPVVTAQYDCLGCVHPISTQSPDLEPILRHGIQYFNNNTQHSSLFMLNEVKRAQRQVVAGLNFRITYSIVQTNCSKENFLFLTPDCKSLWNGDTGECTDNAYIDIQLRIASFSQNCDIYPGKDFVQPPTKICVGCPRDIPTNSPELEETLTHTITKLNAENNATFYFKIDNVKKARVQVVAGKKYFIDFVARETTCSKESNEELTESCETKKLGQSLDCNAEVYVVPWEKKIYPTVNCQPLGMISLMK
Sequence of cleaved high molecular weight kininogen (HKa) (Homo sapiens) (P01042 390-644, chain 2 of 2): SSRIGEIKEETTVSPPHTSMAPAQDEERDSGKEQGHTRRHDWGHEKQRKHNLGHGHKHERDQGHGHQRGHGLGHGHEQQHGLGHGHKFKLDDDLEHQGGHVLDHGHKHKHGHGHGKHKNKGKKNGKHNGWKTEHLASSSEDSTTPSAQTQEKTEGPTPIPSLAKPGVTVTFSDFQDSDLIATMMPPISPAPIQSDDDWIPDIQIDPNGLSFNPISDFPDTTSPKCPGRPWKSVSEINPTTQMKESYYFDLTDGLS

Sequence of ferritin (P02794 2-183): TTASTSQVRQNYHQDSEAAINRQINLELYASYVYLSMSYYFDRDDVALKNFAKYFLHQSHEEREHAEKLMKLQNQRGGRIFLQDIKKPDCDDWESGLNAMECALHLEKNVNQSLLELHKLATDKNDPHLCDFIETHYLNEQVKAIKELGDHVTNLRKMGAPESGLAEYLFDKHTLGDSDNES
Sequence of ferritin (P02792 2-175, further chain): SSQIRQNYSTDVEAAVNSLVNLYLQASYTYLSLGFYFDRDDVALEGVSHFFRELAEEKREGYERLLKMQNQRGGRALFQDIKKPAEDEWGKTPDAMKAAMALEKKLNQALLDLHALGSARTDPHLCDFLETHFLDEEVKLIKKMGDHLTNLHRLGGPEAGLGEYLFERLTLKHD

On to ferritin (from UniProt P02794), for which the Kd is 13 nM.
